We go through three molecules from PMC4294675 (Molecular Biology of the Cell, 2015).

Common to all, as to assay: other fluorescence titration
Assay [1] has as its target ScPFY(9-Mut) (Saccharomyces cerevisiae) (UniProt P07274).
The target in assay [2] is budding yeast profilin ScPFY (wild type) (Saccharomyces cerevisiae) (UniProt P07274).
Assay [3] has as its target fission yeast profilin SpPRF (S. pombe) (UniProt P39825).
Assay [4] concerns the target T1, Cdc12(FH1) (fission yeast, UniProt Q10059 740-972).
T1 sequence: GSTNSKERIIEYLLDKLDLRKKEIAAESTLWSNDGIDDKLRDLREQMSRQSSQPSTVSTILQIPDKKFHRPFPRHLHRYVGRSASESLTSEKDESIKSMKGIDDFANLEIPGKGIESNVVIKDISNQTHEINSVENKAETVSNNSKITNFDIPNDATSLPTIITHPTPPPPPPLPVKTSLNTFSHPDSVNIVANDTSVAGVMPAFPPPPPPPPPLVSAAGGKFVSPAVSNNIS

Sequence of fission yeast profilin SpPRF (S. pombe) (P39825 whole entry): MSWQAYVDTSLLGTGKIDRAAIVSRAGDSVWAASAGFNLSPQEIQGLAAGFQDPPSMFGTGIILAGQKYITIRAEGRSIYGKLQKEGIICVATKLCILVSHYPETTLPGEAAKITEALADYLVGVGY

A word on the Kd: it is the free concentration of one partner at which half of the binding sites on the other are occupied at equilibrium, for simple one-to-one binding. A lower Kd goes with higher affinity. Turning to poly-L-proline (peptide), the figures for the Kd in assay [1], in assay [2] and in assay [3] were 195 µM, 224 µM and 59 µM, respectively.

B1: budding yeast profilin ScPFY (wild type) (natural protein)
chain: MSWQAYTDNLIGTGKVDKAVIYSRAGDAVWATSGGLSLQPNEIGEIVQGFDNPAGLQSNGLHIQGQKFMLLRADDRSIYGRHDAEGVVCVRTKQTVIIAHYPPTVQAGEATKIVEQLADYLIGVQY
Turning to B1, the Kd in assay [4] is 24.7 µM.

B2: Cdc12(FH1) (domain or fragment)
chain: T1 sequence
In assay [1], B2 had a Kd of 22.7 µM.
